Results on three substances are retold here after patent US20160052993A1.

A word on the Kd: it is the equilibrium constant for the complex coming apart.

In assay [1] the target is hFcRn (human) (UniProt P61769). The assay can be described thus: ELISA. Particulars: other; remark: other sources report otherwise. On the technique in general: In an ELISA, binding on a coated surface is turned into a signal by an enzyme label.
Assay [2] concerns the target single-chain human FcRn, FLAG/His-tagged (human) (UniProt P61769). As to the kind of experiment: ELISA, HSA variant immobilised, schFcRn titrated, pH 5.5 (asterisk).

Chain of hFcRn (human) (P55899 24-297, chain 1 of 2): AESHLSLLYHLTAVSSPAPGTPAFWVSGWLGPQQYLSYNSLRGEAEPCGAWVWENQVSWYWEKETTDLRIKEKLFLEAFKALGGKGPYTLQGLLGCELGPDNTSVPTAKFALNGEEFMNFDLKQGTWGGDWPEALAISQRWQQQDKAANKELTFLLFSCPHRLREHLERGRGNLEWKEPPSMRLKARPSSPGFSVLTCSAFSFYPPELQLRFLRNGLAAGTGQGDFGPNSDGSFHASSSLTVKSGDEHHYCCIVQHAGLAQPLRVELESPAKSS
Chain of hFcRn (human) (P61769 21-119, chain 2 of 2): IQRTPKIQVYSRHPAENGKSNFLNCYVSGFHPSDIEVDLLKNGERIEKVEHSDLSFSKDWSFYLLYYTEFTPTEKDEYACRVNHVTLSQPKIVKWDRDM

For the substance “HSA13+H535F (from UniProt P02768 25-609)”, the Kd in assay [1] amounted to 91.8 nM. In other words, the double-digit nanomolar range. The same measure, in the same setting: next, “HSA13+H510F (from UniProt P02768 25-609)”: 32 nM. As to “HSA18 (V424I) (from UniProt P02768 25-609)”, the Kd in assay [2] amounted to 250 nM.
